The conditions of data set [1]: cited from earlier work.
Data set [2] in a line: Immunogenicity test, antibody titre by direct ELISA, Example 6. It is filed as in vivo, mouse (Balb/c). The note with it: 30 nmol/kg daily for 28 days, serum on day 45.
Data set [3] has as its target T1, GIPR (Homo sapiens, UniProt P48546).
T1 sequence (P48546 22-466): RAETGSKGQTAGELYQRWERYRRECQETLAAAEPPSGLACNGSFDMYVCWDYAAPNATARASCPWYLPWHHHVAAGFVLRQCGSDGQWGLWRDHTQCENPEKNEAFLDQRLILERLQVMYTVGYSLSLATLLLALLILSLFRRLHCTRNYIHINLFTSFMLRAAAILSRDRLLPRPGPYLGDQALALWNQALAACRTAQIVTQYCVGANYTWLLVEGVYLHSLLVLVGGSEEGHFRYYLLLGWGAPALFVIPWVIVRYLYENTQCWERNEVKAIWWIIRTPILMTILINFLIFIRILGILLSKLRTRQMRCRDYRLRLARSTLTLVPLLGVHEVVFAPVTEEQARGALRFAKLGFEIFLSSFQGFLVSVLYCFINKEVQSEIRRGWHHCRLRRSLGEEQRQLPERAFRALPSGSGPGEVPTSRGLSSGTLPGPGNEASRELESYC
The settings on record: cited from earlier work.

For data set [4] the following is noted: human, in vivo; cited from earlier work.

On to GLP-1 [天然GLP-1], for which the Half-life in vivo in data set [1] is ~2 分钟.
For Glucagon [C001], the Immunogenicity in vivo result in data set [2] was “极低”. The GIPR agonist activity entry in data set [3] is on record as “没有GIPR激动活性”.
For the substance Taspoglutide, the Antibody formation rate in data set [4] was 49 %.

These data come from patent publication CN109836488A, “一种治疗代谢疾病的胰高血糖素类似物” (Zhejiang Doer Biologics Co Ltd, priority 2017, dated 2019).
